{
  "source": "patent US20090258001A1",
  "key": {"[1]": {"biological_target": "CD3 (CD3/TCR complex) on CD4+ and CD8+ T cells of patients (human) (UniProt P07766)", "sequence (P07766 23-207, chain 1 of 3)": "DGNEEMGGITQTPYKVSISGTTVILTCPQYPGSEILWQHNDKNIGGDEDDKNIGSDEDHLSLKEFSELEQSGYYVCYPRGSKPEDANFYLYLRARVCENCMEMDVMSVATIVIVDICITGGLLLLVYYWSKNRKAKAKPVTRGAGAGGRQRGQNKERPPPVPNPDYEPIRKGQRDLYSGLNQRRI", "sequence (chain, as listed by the source, chain 2 of 3)": "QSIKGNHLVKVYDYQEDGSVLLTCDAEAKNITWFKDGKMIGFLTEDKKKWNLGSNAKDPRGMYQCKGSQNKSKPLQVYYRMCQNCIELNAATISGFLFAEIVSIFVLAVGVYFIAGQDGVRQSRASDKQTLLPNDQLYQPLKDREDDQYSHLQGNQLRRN", "sequence (chain, as listed by the source, chain 3 of 3)": "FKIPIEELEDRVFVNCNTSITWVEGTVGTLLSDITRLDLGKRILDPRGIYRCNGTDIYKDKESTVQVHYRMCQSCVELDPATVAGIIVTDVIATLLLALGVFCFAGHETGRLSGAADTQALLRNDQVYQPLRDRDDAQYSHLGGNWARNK"}, "[2]": {"biological_target": "CD3 (CD3/TCR complex) on CD4+ and CD8+ T cells of patients (human) (UniProt P07766)", "test": "flow cytometry of CD4+ T cells, anti-human IgG; Example 3 Cohort 3, end of 0.3 mg infusion"}, "[3]": {"biological_target": "CD3 (CD3/TCR complex) on CD4+ and CD8+ T cells of patients (human) (UniProt P07766)", "test": "flow cytometry of CD4+ T cells, anti-human IgG; Example 3 Cohort 3, end of 0.5 mg infusion"}, "[4]": {"biological_target": "CD3 (CD3/TCR complex) on CD4+ and CD8+ T cells of patients (human) (UniProt P07766)", "test": "flow cytometry of CD4+ T cells, anti-human IgG; Example 4 Cohort A, end of 0.5 mg infusion"}, "[5]": {"biological_target": "CD3 (CD3/TCR complex) on CD4+ and CD8+ T cells of patients (human) (UniProt P07766)", "test": "flow cytometry of CD4+ T cells, anti-human IgG; Example 4 Cohort B, end of 0.1 mg infusion"}, "[6]": {"biological_target": "CD3 (CD3/TCR complex) on CD4+ and CD8+ T cells of patients (human) (UniProt P07766)", "test": "flow cytometry of CD4+ T cells, anti-human IgG; Example 4 Cohort C, end of 0.2 mg infusion"}, "[7]": {"biological_target": "CD3 (CD3/TCR complex) on CD4+ and CD8+ T cells of patients (human) (UniProt P07766)", "test": "flow cytometry of CD4+ T cells, anti-human IgG; Example 4 Cohort A*, end of 0.1 mg infusion"}, "[8]": {"biological_target": "CD3 (CD3/TCR complex) on CD4+ and CD8+ T cells of patients (human) (UniProt P07766)", "test": "flow cytometry of CD4+ T cells, free CD3 sites by biotinylated TRX4; Example 3 Cohort 3, 0.3 mg"}, "[9]": {"biological_target": "CD3 (CD3/TCR complex) on CD4+ and CD8+ T cells of patients (human) (UniProt P07766)", "test": "flow cytometry of CD4+ T cells, free CD3 sites by biotinylated TRX4; Example 4 Cohort A, 0.2 mg"}, "[10]": {"biological_target": "CD3 (CD3/TCR complex) on CD4+ and CD8+ T cells of patients (human) (UniProt P07766)", "test": "flow cytometry of CD4+ T cells, free CD3 sites by biotinylated TRX4; Example 4 Cohort A, 0.5 mg"}, "[11]": {"biological_target": "CD3 (CD3/TCR complex) on CD4+ and CD8+ T cells of patients (human) (UniProt P07766)", "test": "flow cytometry of CD4+ T cells, free CD3 sites by biotinylated TRX4; Example 4 Cohort B, 0.2 mg"}, "[12]": {"biological_target": "CD3 (CD3/TCR complex) on CD4+ and CD8+ T cells of patients (human) (UniProt P07766)", "test": "flow cytometry of CD4+ T cells, free CD3 sites by biotinylated TRX4; Example 4 Cohort C, 0.2 mg"}, "[13]": {"biological_target": "CD3 (CD3/TCR complex) on CD4+ and CD8+ T cells of patients (human) (UniProt P07766)", "test": "flow cytometry of CD4+ T cells, free CD3 sites by biotinylated TRX4; Example 4 Cohort C, 1.0 mg"}, "[14]": {"biological_target": "CD3 (CD3/TCR complex) on CD4+ and CD8+ T cells of patients (human) (UniProt P07766)", "test": "flow cytometry of CD4+ T cells, free CD3 sites by biotinylated TRX4; Example 4 Cohort A*, 0.1 mg"}, "[15]": {"biological_target": "CD3 (CD3/TCR complex) on CD4+ and CD8+ T cells of patients (human) (UniProt P07766)", "test": "flow cytometry of CD4+ T cells, free CD3 sites by biotinylated TRX4; Example 4 Cohort B, 0.75 mg"}, "[16]": {"biological_target": "CD3 (CD3/TCR complex) on CD4+ and CD8+ T cells of patients (human) (UniProt P07766)", "test": "flow cytometry of CD4+ T cells, free CD3 sites by biotinylated TRX4; Example 4 Cohort A*, 0.05 mg"}, "[17]": {"biological_target": "CD3 (CD3/TCR complex) on CD4+ and CD8+ T cells of patients (human) (UniProt P07766)", "test": "flow cytometry of CD4+ T cells, anti-human IgG; Example 4 Cohort C, 2 hours after 1.0 mg infusion"}, "[18]": {"biological_target": "CD3 (CD3/TCR complex) on CD4+ and CD8+ T cells of patients (human) (UniProt P07766)", "test": "flow cytometry of CD4+ T cells, free CD3 sites by biotinylated TRX4; Example 3 Cohort 2, first 0.5 mg dose"}, "[19]": {"biological_target": "CD3 (CD3/TCR complex) on CD4+ and CD8+ T cells of patients (human) (UniProt P07766)", "test": "flow cytometry of CD4+ T cells, free CD3 sites by biotinylated TRX4; Example 3 Cohort 2, third 0.5 mg dose"}, "[20]": {"biological_target": "CD3 (CD3/TCR complex) on CD4+ and CD8+ T cells of patients (human) (UniProt P07766)", "test": "flow cytometry of CD4+ T cells, free CD3 sites by biotinylated TRX4; Example 3 Cohort 2, second 0.5 mg dose"}, "[21]": {"biological_target": "CD3 (CD3/TCR complex) on CD4+ and CD8+ T cells of patients (human) (UniProt P07766)", "test": "flow cytometry, free sites by biotinylated TRX4; Example 4, 4-dose cohorts, after doses of 0.5 mg and higher"}, "[22]": {"biological_target": "CD3 (CD3/TCR complex) on CD4+ and CD8+ T cells of patients (human) (UniProt P07766)", "test": "flow cytometry of patients' CD4+ T cells, anti-human IgG; Example 3 Cohort 1 (0.1 mg x3), end of second infusion"}, "[23]": {"biological_target": "CD3 (CD3/TCR complex) on CD4+ and CD8+ T cells of patients (human) (UniProt P07766)", "test": "flow cytometry of CD4+ T cells, free CD3 sites by biotinylated TRX4; Example 4 Cohort A, 2 hours after last infusion"}, "[24]": {"biological_target": "CD3 (CD3/TCR complex) on CD4+ and CD8+ T cells of patients (human) (UniProt P07766)", "test": "flow cytometry of CD4+ T cells, free CD3 sites by biotinylated TRX4; Example 4 Cohort C, 2 hours after last infusion"}, "[25]": {"biological_target": "CD3 (CD3/TCR complex) on CD4+ and CD8+ T cells of patients (human) (UniProt P07766)", "test": "flow cytometry of CD4+ T cells, free CD3 sites by biotinylated TRX4; Example 3 Cohort 2, 2 hours after end of infusion"}},
  "data": [
    {"substance": "TRX4 antibody", "values": [
      {"measurement": "CD3/TCR modulation (decrease in MESF of TCR αβ on T cells, stained with non-competing antibody BMA031)", "setting": "[1]", "result": "> 80", "unit": "%"},
      {"measurement": "cell-bound TRX4 (MESF of anti-human IgG)", "setting": "[2]", "result": 300000, "unit": "MESF units"},
      {"measurement": "cell-bound TRX4 (MESF of anti-human IgG)", "setting": "[3]", "result": 800000, "unit": "MESF units"},
      {"measurement": "cell-bound TRX4 (MESF of anti-human IgG)", "setting": "[4]", "result": 450000, "unit": "MESF units"},
      {"measurement": "cell-bound TRX4 (MESF of anti-human IgG)", "setting": "[5]", "result": "2e+06", "unit": "MESF units"},
      {"measurement": "cell-bound TRX4 (MESF of anti-human IgG)", "setting": "[6]", "result": "1.2e+06", "unit": "MESF units"},
      {"measurement": "cell-bound TRX4 (MESF of anti-human IgG)", "setting": "[7]", "result": 700000, "unit": "MESF units"},
      {"measurement": "percent saturation of CD3", "setting": "[8]", "result": 70, "unit": "%"},
      {"measurement": "percent saturation of CD3", "setting": "[9]", "result": 70, "unit": "%"},
      {"measurement": "percent saturation of CD3", "setting": "[10]", "result": 95, "unit": "%"},
      {"measurement": "percent saturation of CD3", "setting": "[11]", "result": 60, "unit": "%"},
      {"measurement": "percent saturation of CD3", "setting": "[12]", "result": 95, "unit": "%"},
      {"measurement": "percent saturation of CD3", "setting": "[13]", "result": 97, "unit": "%"},
      {"measurement": "percent saturation of CD3", "setting": "[14]", "result": 70, "unit": "%"},
      {"measurement": "percent saturation of CD3", "setting": "[15]", "result": 95, "unit": "%"},
      {"measurement": "percent saturation of CD3", "setting": "[16]", "result": 50, "unit": "%"},
      {"measurement": "cell-bound TRX4 (MESF of anti-human IgG)", "setting": "[17]", "result": 600000, "unit": "MESF units"},
      {"measurement": "percent saturation of CD3", "setting": "[18]", "result": 90, "unit": "%"},
      {"measurement": "percent saturation of CD3", "setting": "[19]", "result": 95, "unit": "%"},
      {"measurement": "percent saturation of CD3", "setting": "[20]", "result": 80, "unit": "%"},
      {"measurement": "percent saturation of CD3", "setting": "[21]", "result": "> 90", "unit": "%"},
      {"measurement": "cell-bound TRX4 (MESF of anti-human IgG)", "setting": "[22]", "result": 300000, "unit": "MESF units"},
      {"measurement": "percent saturation of CD3", "setting": "[23]", "result": 60, "unit": "%"},
      {"measurement": "percent saturation of CD3", "setting": "[24]", "result": 50, "unit": "%"},
      {"measurement": "percent saturation of CD3", "setting": "[25]", "result": 55, "unit": "%"}
    ]}
  ]
}
